Laboratory results from patent US20240116985A1 (published 2024).
Starred links: 1 amine or outer side, 2 acyl side, 3 side chain; linkers in the order of their positions; H or OH if unused. Positions of bridges follow the written chain, without caps; N, C: chain ends. Non-standard residues stand in square brackets, D forms with d. Primed or numbered codes have the meaning given here. B5(10) = 2-amino-2-(pent-4-en-1-yl)hept-6-enoic acid, bis(4-pentenyl)glycine, stitching residue bearing both staples, C=CCCCC(CCCC=C)(N[*:1])C(=O)[*:2]; PyrS2(3) = (S)-3-amino-1-((pent-4-en-1-yloxy)carbonyl)pyrrolidine-3-carboxylic acid, stapling residue, C=CCCCOC(=O)N1CC[C@@](N[*:1])(C(=O)[*:2])C1; PyrS2″ = (S)-3-amino-1-((pent-4-en-1-yloxy)carbonyl)pyrrolidine-3-carboxylic acid (stapling residue), C=CCCCOC(=O)N1CC[C@@](N[*:1])(C(=O)[*:2])C1; B5(16) = 2-amino-2-(pent-4-en-1-yl)hept-6-enoic acid = 2,2-bis(4-pentenyl)glycine (stitching residue), C=CCCCC(CCCC=C)(N[*:1])C(=O)[*:2]; B5(23) = 2-amino-2-(pent-4-en-1-yl)hept-6-enoic acid (2,2-bis(4-pentenyl)glycine), stitching residue, C=CCCCC(CCCC=C)(N[*:1])C(=O)[*:2]; PyrS2 = (S)-3-amino-1-((pent-4-en-1-yloxy)carbonyl)pyrrolidine-3-carboxylic acid, C=CCCCOC(=O)N1CC[C@@](N[*:1])(C(=O)[*:2])C1; Phe(2-Cl) = N[C@@H](Cc1ccccc1Cl)C(=O)O; Bta = N[C@@H](Cc1csc2ccccc12)C(=O)O; αAllylPro = C=CC[C@@]1(C(=O)O)CCCN1; tBuAla = CC(C)(C)C[C@H](N)C(=O)O; Cha = N[C@@H](CC1CCCCC1)C(=O)O; S8 = C=CCCCCCC[C@](C)(N)C(=O)O; R5 = C=CCCC[C@@](C)(N)C(=O)O

How the values were obtained:
[1] = target: T1, beta-catenin in DLD1 TCF/LEF luciferase reporter cells (UniProt P35222 1-781); test: cell-based or functional assay
T1 sequence (looked up): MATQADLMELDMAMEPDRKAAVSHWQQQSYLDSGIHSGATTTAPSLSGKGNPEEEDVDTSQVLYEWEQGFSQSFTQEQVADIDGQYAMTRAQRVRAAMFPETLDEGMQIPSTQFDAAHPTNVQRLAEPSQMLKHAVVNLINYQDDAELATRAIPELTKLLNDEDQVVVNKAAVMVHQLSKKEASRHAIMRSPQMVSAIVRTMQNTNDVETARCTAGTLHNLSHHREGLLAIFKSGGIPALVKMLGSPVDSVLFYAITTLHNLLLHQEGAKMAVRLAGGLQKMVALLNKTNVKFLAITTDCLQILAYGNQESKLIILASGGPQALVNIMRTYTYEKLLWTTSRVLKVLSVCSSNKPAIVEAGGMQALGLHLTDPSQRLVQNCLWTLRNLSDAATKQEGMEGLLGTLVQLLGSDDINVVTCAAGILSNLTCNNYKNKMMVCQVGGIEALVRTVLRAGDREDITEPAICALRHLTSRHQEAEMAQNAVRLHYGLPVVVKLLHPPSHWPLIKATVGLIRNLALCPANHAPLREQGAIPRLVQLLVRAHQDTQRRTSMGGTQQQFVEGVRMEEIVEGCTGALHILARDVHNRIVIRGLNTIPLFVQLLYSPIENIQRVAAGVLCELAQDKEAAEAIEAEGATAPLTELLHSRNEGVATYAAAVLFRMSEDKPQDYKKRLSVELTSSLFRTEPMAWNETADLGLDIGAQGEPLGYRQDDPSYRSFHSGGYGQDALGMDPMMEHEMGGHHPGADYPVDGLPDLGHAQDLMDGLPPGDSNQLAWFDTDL

[2] = target: B-cat-Halo (beta-catenin HaloTag construct expressed in HEK293 cells) (UniProt P35222 1-781); test: cell-based or functional assay
[3] = target: T2, B-cat-Halo (beta-catenin HaloTag NanoBRET construct expressed in HEK293 cells) (UniProt P35222 1-781, HaloTag labelled with HaloTag NanoBRET 618 Ligand); test: cell-based or functional assay
T2 sequence (looked up): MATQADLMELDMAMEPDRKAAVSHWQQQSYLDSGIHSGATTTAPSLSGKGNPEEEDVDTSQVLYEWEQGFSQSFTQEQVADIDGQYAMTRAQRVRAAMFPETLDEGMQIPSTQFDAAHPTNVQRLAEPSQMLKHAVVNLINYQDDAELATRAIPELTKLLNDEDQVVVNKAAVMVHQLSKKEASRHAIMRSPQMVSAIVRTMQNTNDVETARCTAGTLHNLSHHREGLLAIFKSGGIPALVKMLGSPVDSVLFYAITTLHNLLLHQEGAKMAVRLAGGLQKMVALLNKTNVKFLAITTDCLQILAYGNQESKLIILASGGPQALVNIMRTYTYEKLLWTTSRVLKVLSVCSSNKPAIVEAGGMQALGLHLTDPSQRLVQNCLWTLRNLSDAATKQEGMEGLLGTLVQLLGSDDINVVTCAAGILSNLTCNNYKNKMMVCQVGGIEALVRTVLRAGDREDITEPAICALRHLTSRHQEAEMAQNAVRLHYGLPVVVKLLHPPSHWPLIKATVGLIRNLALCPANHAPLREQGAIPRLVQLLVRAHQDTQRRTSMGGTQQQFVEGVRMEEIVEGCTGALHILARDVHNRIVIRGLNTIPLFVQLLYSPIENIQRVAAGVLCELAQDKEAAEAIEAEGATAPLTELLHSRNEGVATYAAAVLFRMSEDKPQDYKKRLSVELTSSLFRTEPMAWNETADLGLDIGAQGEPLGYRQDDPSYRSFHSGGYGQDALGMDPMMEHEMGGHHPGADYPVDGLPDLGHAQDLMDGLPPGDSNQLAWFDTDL

[4] = target: T3, full-length beta-Catenin (Uniprot ID P35222) (Homo sapiens (Human), UniProt P35222 2-781); test: fluorescence polarization competition; 10 nM full-length beta-catenin + 10 nM 5FAM-TCF4(10-53) probe, peptide titrated
T3 construct: also called bCat; B-Catenin
T3 sequence: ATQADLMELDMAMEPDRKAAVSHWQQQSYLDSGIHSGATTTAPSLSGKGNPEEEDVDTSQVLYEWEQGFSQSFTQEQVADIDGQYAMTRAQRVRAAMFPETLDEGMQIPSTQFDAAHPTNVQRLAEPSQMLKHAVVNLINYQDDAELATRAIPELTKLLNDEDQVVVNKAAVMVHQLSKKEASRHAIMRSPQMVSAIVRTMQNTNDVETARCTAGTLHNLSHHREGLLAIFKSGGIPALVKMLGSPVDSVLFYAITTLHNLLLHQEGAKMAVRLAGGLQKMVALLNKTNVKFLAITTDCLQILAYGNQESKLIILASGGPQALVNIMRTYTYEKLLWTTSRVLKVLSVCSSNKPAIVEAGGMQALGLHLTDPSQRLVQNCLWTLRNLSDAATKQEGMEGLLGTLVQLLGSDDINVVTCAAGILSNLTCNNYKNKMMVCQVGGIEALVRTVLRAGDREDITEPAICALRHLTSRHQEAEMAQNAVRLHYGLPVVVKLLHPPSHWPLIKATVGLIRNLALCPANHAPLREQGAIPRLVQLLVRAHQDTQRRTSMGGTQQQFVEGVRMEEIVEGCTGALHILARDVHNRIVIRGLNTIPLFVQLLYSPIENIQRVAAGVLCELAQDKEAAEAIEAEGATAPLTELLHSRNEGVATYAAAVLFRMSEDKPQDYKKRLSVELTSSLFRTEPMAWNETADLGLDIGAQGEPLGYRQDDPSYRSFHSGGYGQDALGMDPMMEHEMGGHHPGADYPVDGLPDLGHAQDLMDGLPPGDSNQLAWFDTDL
Experimental: (§1) The plate was incubated protected from light for 60 minutes at 20° C. prior to read. Reads were performed on a CLARIOstar plate reader (BMG Labtech) in duplicate, and data were fitted to a 1:1 binding model with hill slope using an in-house script. All provided concentrations are final concentrations.

[5] = target: T4, full-length beta-Catenin (Uniprot ID P35222) (Homo sapiens (Human), UniProt P35222 2-781); test: fluorescence polarization competition; full-length beta-catenin + 5FAM-TCF4 10-53 probe
T4 construct: The FP protocol says 'full-length beta-Catenin (Uniprot ID P35222)'; also called bCat; B-Catenin
T4 sequence: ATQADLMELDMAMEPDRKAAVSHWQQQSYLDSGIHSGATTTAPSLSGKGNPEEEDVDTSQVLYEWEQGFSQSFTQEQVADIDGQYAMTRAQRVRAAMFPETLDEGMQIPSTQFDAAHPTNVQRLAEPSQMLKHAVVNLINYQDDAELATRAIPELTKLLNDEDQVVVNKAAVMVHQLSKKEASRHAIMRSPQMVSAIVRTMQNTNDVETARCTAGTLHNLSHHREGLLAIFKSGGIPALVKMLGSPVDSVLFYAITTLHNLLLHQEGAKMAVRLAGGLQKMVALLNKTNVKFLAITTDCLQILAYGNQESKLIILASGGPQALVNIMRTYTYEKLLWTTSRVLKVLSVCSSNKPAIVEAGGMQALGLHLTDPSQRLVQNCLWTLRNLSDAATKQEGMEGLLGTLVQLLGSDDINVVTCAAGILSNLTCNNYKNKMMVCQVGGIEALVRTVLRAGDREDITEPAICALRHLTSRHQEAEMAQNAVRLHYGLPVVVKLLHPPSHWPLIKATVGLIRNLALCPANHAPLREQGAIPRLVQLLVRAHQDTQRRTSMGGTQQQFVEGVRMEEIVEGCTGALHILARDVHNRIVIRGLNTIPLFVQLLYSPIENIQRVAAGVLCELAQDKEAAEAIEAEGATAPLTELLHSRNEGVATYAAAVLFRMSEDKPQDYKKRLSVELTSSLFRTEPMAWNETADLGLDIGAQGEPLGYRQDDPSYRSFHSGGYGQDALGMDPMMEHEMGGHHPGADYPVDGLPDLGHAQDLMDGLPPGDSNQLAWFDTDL
Experimental: as §1

[6] = target: T5, full-length beta-Catenin (Uniprot ID P35222) (Homo sapiens (Human), UniProt P35222 2-781); test: fluorescence polarization competition, displacement of 5FAM-TCF4 10-53 from full-length beta-catenin
T5 construct: also called bCat; B-Catenin
T5 sequence: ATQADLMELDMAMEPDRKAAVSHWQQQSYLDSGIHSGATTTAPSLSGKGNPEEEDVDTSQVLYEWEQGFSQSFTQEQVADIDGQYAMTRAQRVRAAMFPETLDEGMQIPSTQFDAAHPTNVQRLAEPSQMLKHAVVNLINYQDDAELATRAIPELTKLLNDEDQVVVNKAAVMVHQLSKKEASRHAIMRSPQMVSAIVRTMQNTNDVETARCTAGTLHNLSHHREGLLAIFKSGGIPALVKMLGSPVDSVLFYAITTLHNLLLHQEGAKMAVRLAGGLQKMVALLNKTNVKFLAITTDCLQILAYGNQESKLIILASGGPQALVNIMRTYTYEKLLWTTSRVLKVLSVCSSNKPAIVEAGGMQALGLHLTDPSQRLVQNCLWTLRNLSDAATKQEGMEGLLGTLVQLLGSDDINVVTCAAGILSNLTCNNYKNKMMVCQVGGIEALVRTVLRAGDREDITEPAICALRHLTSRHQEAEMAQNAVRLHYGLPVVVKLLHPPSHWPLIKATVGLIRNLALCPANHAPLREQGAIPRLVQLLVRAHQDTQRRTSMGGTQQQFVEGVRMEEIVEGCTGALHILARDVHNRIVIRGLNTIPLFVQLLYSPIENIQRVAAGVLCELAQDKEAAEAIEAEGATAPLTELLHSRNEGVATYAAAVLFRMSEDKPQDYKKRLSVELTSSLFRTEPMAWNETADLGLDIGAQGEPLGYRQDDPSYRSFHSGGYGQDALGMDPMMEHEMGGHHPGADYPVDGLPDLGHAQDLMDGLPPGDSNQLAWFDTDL
Experimental: as §1

B1: I-1019: Ac-PL3-Asp-Npg-B5-Asp-Asp-Ala-Ala-Phe-Ser-PyrS2-2C1F-BztA-Ser-NH2 (peptide)
peptide: Ac-[αAllylPro]D[tBuAla][B5(16)]DDAAFS[PyrS2″][Phe(2-Cl)][Bta]S-NH2
modifications: staple 1-4, 4-11; not fully specified; printed as Ac-PL3-Asp-Npg-B5-Asp-Asp-Ala-Ala-Phe-Ser-PyrS2-2C1F-BztA-Ser-NH2
- DLD1 4% Abs IC50 [1]: 7.8 µM
- NanoBRET Abs IC50 [2]: 9.6 µM

Binder: Ac-[αAllylPro]DI[B5(23)]DEAAFQ[S8]F[Bta]Q-NH2 (staple 1-4, 4-11, Stapled (stitched) peptide) [I-407]
- NanoBRET % inh @ 10 uM [3]: 55.1%
- EC50 [4]: 0.03 µM

B2: I-1295 (peptide)
peptide: Ac-[αAllylPro]DA[B5(10)]NTAAFL[PyrS2]F[Bta]Q-NH2
modifications: staple 1-4, 4-11; not fully specified; printed as Ac-PL3-Asp-Ala-B5-Asn-Thr-Ala-Ala-Phe-Leu-PyrS2-Phe-BztA-Gln-NH2
notes: earlier eluting HPLC peak (staple isomer composition); also called Ac-PL3-Asp-Ala-B5-Asn-Thr-Ala-Ala-Phe-Leu-PyrS2-Phe-BztA-Gln-NH2
- IC50 [5]: 10 µM

Binder: Ac-PD[Cha][R5]DDAAFT[PyrS2(3)][Phe(2-Cl)][Bta]S-NH2 (staple 4-11, Stapled peptide, one staple) [I-1184]
- IC50 [6]: 0.176 µM
